In patent US20050282743A1, “Molecular interactions in cells” (Arbor Vita Corporation, priority 2001, published 2005):

Experiments:
Assay in all cases: G' assay
[1] = target: T1, GST-EZRIN Binding Protein 50 PDZ domain 1 (Homo sapiens (Human)), O14745
T1 chain: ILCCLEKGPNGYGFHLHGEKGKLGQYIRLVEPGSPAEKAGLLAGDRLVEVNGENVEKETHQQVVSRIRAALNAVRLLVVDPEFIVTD

[2] = target: T2, GST-Shank 1 PDZ domain 1 (Homo sapiens (Human)), Q9UPX8
T2 chain: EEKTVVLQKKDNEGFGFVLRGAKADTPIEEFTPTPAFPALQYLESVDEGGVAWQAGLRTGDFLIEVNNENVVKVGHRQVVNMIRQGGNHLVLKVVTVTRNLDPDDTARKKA

[3] = target: GST-KIAA0147 PDZ domain 1 (Homo sapiens (Human)), Q14160
Chain of GST-KIAA0147 PDZ domain 1 (Homo sapiens (Human)), Q14160 (Q14160 other isoform, or with tags, fused parts or gaps): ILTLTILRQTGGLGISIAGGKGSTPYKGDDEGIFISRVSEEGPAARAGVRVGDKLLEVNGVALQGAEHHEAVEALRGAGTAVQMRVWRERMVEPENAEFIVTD

[4] = target: GST-KIAA1634 PDZ domain 5 (Homo sapiens (Human)), Q5TCQ9
Chain of GST-KIAA1634 PDZ domain 5 (Homo sapiens (Human)), Q5TCQ9 (Q5TCQ9 other isoform, or with tags, fused parts or gaps): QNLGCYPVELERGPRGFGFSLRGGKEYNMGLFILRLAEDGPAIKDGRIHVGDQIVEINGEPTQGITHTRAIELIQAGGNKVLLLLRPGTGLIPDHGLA

[5] = target: GST-BAI-1 Associated Protein PDZ domain 4 (Homo sapiens (Human)), Q96QZ7
Chain of GST-BAI-1 Associated Protein PDZ domain 4 (Homo sapiens (Human)), Q96QZ7 (Q96QZ7 other isoform, or with tags, fused parts or gaps): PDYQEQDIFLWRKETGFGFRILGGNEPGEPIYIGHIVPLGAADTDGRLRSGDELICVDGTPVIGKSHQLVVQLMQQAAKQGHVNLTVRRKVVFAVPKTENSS

[6] = target: GST-KIAA807 [GST: P08515]
Chain of GST-KIAA807 [GST: P08515] (P08515 whole entry, the tested form may be a part): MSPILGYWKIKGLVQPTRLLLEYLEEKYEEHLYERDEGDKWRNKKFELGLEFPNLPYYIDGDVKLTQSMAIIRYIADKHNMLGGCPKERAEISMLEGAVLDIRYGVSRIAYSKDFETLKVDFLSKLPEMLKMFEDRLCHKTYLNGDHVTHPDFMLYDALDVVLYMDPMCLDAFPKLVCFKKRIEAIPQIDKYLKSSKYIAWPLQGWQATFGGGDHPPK

[7] = target: GST-BAI-1 Associated Protein PDZ domain 5 (Homo sapiens (Human)), Q96QZ7
Chain of GST-BAI-1 Associated Protein PDZ domain 5 (Homo sapiens (Human)), Q96QZ7 (Q96QZ7 988-1099): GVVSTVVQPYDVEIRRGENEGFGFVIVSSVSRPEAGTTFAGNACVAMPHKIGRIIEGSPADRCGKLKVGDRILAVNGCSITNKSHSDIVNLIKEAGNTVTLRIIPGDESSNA

[8] = target: T3, GST-novel PDZ gene PDZ domain 1 (Homo sapiens (Human)), Q9H5P4
T3 chain: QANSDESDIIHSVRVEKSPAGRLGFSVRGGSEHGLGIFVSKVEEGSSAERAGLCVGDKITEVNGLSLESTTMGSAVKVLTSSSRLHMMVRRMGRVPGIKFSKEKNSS

[9] = target: T4, GST-ERBIN PDZ domain 1 (Homo sapiens (Human)), Q96RT1
T4 chain: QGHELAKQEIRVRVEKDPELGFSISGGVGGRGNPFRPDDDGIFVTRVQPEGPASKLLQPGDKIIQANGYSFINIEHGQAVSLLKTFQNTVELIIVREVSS

[10] = target: GST-Atrophin-1 Interacting Protein PDZ domain 5 (Rattus norvegicus (Rat)), O88382
Chain of GST-Atrophin-1 Interacting Protein PDZ domain 5 (Rattus norvegicus (Rat)), O88382 (O88382 1128-1225): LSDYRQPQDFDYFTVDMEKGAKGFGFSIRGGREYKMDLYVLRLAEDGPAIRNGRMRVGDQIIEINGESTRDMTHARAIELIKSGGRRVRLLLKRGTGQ

[11] = target: T5, GST-MUPP1 PDZ domain 13 (Homo sapiens (Human)), O75970
T5 chain: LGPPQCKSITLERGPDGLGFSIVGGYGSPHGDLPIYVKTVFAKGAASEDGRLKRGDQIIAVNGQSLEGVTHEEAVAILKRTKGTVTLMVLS

[12] = target: T6, GST-Syntrophin gamma 2 PDZ domain 1 (Homo sapiens (Human)), Q9NY99
T6 chain: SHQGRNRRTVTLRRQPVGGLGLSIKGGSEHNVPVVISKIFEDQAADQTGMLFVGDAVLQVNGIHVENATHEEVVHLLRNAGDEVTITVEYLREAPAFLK

[13] = target: GST-Atrophin-1 Interacting Protein PDZ domain 1 (Rattus norvegicus (Rat)), O88382
Chain of GST-Atrophin-1 Interacting Protein PDZ domain 1 (Rattus norvegicus (Rat)), O88382 (O88382 408-511): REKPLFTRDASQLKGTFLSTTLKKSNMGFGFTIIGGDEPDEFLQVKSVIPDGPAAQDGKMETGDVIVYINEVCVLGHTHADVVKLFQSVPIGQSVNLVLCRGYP

[14] = target: GST-TAX IP2 PDZ domain 1 [GST: P08515]
Chain of GST-TAX IP2 PDZ domain 1 [GST: P08515] (P08515 whole entry, the tested form may be a part): as the sequence (P08515 whole entry, the tested form may be a part) above

[15] = target: T7, GST-NeDLG PDZ domains 1, 2, Q92796
T7 chain: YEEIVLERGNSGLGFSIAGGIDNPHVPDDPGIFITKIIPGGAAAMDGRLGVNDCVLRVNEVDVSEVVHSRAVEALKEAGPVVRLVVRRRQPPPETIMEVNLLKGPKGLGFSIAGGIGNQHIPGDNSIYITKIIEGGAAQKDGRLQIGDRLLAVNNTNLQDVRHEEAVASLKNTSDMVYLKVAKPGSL

[16] = target: T8, GST-MUPP1 PDZ domain 10 (Homo sapiens (Human)), O75970
T8 chain: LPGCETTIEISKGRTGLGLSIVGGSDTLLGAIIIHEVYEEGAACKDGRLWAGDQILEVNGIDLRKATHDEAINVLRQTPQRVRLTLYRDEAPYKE

[17] = target: T9, GST-MUPP1 PDZ domain 5 (Homo sapiens (Human)), O75970
T9 chain: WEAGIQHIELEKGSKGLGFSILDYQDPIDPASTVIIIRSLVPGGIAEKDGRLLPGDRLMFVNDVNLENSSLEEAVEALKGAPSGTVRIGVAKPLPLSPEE

[18] = target: T10, GST-KIAA0147 PDZ domain 2 (Homo sapiens (Human)), Q14160
T10 chain: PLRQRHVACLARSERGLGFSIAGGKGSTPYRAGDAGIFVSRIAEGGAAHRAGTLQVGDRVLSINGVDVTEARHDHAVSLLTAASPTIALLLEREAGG

[19] = target: T11, GST-ZO-1 PDZ domain 2 (Rattus norvegicus (Rat)), A0A0G2
T11 chain: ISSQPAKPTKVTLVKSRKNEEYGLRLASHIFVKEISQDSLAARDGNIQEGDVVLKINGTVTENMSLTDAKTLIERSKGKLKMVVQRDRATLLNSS

[20] = target: T12, GST-MINT1 PDZ domain 1 (Mus musculus (Mouse)), B2RUJ5
T12 chain: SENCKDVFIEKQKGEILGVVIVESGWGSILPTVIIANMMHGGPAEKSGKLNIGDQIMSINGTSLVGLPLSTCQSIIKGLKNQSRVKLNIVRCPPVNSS

[21] = target: T13, GST-HEMBA 1003117 PDZ domain 1 (Homo sapiens (Human)), Q96JH8
T13 chain: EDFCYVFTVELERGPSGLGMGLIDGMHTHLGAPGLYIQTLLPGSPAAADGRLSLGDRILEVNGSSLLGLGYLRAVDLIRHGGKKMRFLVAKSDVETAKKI

[22] = target: T14, GST-ZO-2 PDZ domain 2 (Homo sapiens (Human)), Q9UDY2
T14 chain: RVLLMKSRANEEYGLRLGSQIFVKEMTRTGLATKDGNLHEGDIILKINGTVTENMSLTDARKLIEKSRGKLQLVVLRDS
Also: key of the grades not given here.

Row | Binder | Classification [3] | Classification [4] | Classification [5] | Classification [6] | Classification [9] | Classification [10] | Classification [13] | Classification [16] | Classification [20] | Classification [21] | other results
1 | PIPAGGCTFSGIFPTLTSPL (modifications not checked) [KIA 1481] | 2 A450 class | 1 A450 class | 1 A450 class | 5 A450 class | – | – | – | – | – | – | Classification [1]: 2 A450 class; Classification [2]: 5 A450 class; Classification [7]: 3 A450 class; Classification [8]: 1 A450 class
2 | TQGFPGPATWRRISSLESEV (modifications not checked) [NMDA Glutamate Receptor 2C (cysteine-free)] | 5 A450 class | 1 A450 class | 3 A450 class | 4 A450 class | 4 A450 class | 5 A450 class | 5 A450 class | 1 A450 class | – | – | Classification [11]: 5 A450 class; Classification [7]: 4 A450 class; Classification [12]: 2 A450 class; Classification [14]: 4 A450 class; Classification [15]: 5 A450 class; Classification [17]: 1 A450 class; Classification [18]: 1 A450 class
3 | VPGALDYAAFSSALYGESDL (modifications not checked) [a-actinin 2] | 2 A450 class | 5 A450 class | – | 5 A450 class | 1 A450 class | 5 A450 class | – | – | – | – | Classification [2]: 1 A450 class; Classification [12]: 1 A450 class; Classification [14]: 5 A450 class; Classification [8]: 2 A450 class
4 | QISPGGLEPPSEKHFRETEV (modifications not checked) [TAX] | 5 A450 class | 1 A450 class | 2 A450 class | 5 A450 class | 5 A450 class | 3 A450 class | 5 A450 class | – | – | – | Classification [11]: 5 A450 class; Classification [7]: 5 A450 class; Classification [12]: 1 A450 class; Classification [14]: 2 A450 class; Classification [15]: 5 A450 class; Classification [18]: 5 A450 class
5 | HDFRRAFKKILARGDRKRIV (modifications not checked) [alpha-2A Adrenergic receptor] | – | – | – | – | – | 1 A450 class | – | – | 1 A450 class | 1 A450 class | Classification [19]: 4 A450 class; Classification [11]: 1 A450 class; Classification [22]: 2 A450 class
6 | ELLQFCRTPNPALKNGQYWV (modifications not checked) [CSPG4 (chondroitin sulfae proteoglycan 4, melanoma-associated)] | – | 2 A450 class | – | 1 A450 class | 3 A450 class | 2 A450 class | 1 A450 class | 4 A450 class | 2 A450 class | 5 A450 class | Classification [19]: 4 A450 class; Classification [22]: 1 A450 class; Classification [17]: 5 A450 class
7 | KTMPAAMYRLLTAQEQPVYI (modifications not checked) [MINT-1] | – | – | – | 4 A450 class | – | – | – | 1 A450 class | 3 A450 class | 3 A450 class | Classification [17]: 2 A450 class
8 | VGTLLLERVIFPSVKIATLV (modifications not checked) [AdenoE4 typ9] | – | – | 5 A450 class | 4 A450 class | – | – | 5 A450 class | 1 A450 class | – | 3 A450 class | Classification [15]: 5 A450 class
9 | AWDDSARAAGGQGLHVTAL (modifications not checked) [LPAP] | 3 A450 class | – | – | 5 A450 class | – | 2 A450 class | – | – | – | 1 A450 class | Classification [1]: 5 A450 class; Classification [2]: 3 A450 class
10 | PYSELNYETSHYPASPDSWV (modifications not checked) [catenin - delta 2] | – | 3 A450 class | – | 4 A450 class | 4 A450 class | 5 A450 class | – | – | – | 1 A450 class | Classification [18]: 3 A450 class
11 | ILNSIQVMRAQMNQIQSVEV (modifications not checked) [ephrin B2] | – | – | – | 2 A450 class | – | 2 A450 class | – | – | 1 A450 class | 2 A450 class | Classification [19]: 2 A450 class; Classification [1]: 1 A450 class; Classification [8]: 2 A450 class; Classification [22]: 1 A450 class
